Here are results for one substance from PMC3865217.

Assay in all cases: SPR
Holding throughout (conditions): EMSA: 5 mM Hepes pH 7.5, 0.05 mM EDTA, 0.014% Nonidet P40, 5% glycerol, 30 min, 23 C; SPR: 5 mM Hepes pH 7.5, 5 mM phosphate pH 7.5, 0.05 mM EDTA …

In data set [1] the test system is Yap8bZIPLNNR (Saccharomyces cerevisiae).
Data set [2] deals with Yap8bZIPL26A (Saccharomyces cerevisiae).
For data set [3], the system named is Yap8bZIP (Saccharomyces cerevisiae).

The term Kd denotes the free concentration of one partner at which half of the binding sites on the other are occupied at equilibrium, for simple one-to-one binding. Higher therefore signals a looser complex. On to Y8RE 25-bp SPR oligomer, for which the results for the equilibrium dissociation constant (Kd) in data set [1], in data set [2] and in data set [3] were 6.5 nM, 17.2 nM and 6.1 nM, respectively.
